Results taken from PMC5550427, “A family of archaea-like carboxylesterases preferentially expressed in the symbiotic phase of the mycorrhizal fungus Tuber melanosporum” (Scientific Reports, 2017).
Values belong to the molecule of their own block, whether it stands above or below them.

Key:
[1] = system: T1, TmelEST3; test: pNP release at […] nm, Michaelis-Menten fit; format: biochemical, Tuber melanosporum; settings: 25 mM Na-phosphate pH 7.0, 25 °C; Triton X-100 stabilized enzyme
T1 construct: signal peptide (first 18 residues) removed; N-terminal 6xHis cut with thrombin; E. coli BL21-CodonPlus(DE3)-RIL; ~35 kDa subunit, dimer (~65 kDa); salt-bridge residues Glu291, Arg304

[2] = system: T2, TmelEST1; test: pNP release at […] nm, Michaelis-Menten fit; format: biochemical, Tuber melanosporum; settings: 25 mM Na-phosphate pH 7.0, 25 °C; Triton X-100 stabilized enzyme
T2 construct: signal peptide (first 18 residues) removed; N-terminal 6xHis cut with thrombin; E. coli BL21-CodonPlus(DE3)-RIL; ~35 kDa subunit, dimer (~65 kDa); salt-bridge residues Glu284, Arg297; Arg242

[3] = molecular target: TmelEST1 (Tuber melanosporum); test: SEC; Superdex 200 HR10/30, 200 µg purified protein per run, 25 mM Tris-HCl pH 7.5, 150 mM NaCl, non-denaturing; size unchanged on β-mercaptoethanol supplementation
[4] = molecular target: TmelEST2 (Tuber melanosporum); test: as above
[5] = molecular target: TmelEST3 (Tuber melanosporum); test: as above
[6] = system: T1, TmelEST3; test: pH-shift assay with phenol red, A560; format: biochemical, Tuber melanosporum; settings: 2 mM Tris-HCl pH 8, 25 °C; 1-30 mM substrate; preliminary data; read-out: estimated Km
[7] = system: T2, TmelEST1; test: pH-shift assay with phenol red, A560; format: biochemical, Tuber melanosporum; settings: 2 mM Tris-HCl pH 8, 25 °C; 0.25-5 mM substrate; read-out: apparent Km
[8] = substrate: CCCC(=O)Oc1ccc([N+](=O)[O-])cc1; test: purified protein; format: biochemical, Tuber melanosporum; settings: 25 mM Na-phosphate pH 7.0, 25 °C, Triton X-100 stabilized enzyme
[9] = substrate: CCCCC(=O)Oc1ccc([N+](=O)[O-])cc1; test: purified protein; format: biochemical, Tuber melanosporum; settings: 25 mM Na-phosphate pH 7.0, 25 °C, Triton X-100 stabilized enzyme
[10] = substrate: COC(=O)c1ccccc1O; test: pH-shift assay with phenol red, A560; format: biochemical, Tuber melanosporum; settings: 2 mM Tris-HCl pH 8, 25 °C, 1-30 mM substrate, preliminary data

Km [1]: 109 ± 6 µM | Km [2]: 140 ± 14 µM
Molecule: CCCC(=O)Oc1ccc([N+](=O)[O-])cc1 [C4, p-nitrophenyl-butyrate]

Km [1]: 137 ± 20 µM | Km [2]: 160 ± 20 µM
Molecule: CCCCC(=O)Oc1ccc([N+](=O)[O-])cc1 [C5, pNP-valerate]

Further lines, the molecule ahead of its results:

Molecule: TmelEST1 (enzyme)
stoichiometry N [3]: 2

Molecule: TmelEST2 (enzyme)
stoichiometry N [4]: 2

Molecule: TmelEST3 (enzyme)
stoichiometry N [5]: 2

Molecule: COC(=O)Cc1c[nH]c2ccccc12 [indole-3-acetic methyl ester]
Km [6]: ~3350 µM

Molecule: CCOC(=O)/C=C/c1ccc(O)c(OC)c1 [ethyl ferulate]
Km [7]: 880 µM

B1: TmelEST2 (Tuber melanosporum Mel28) (protein)
chain: ETPAPSCPVTNVTTPQLDPITQAYADAISSRPSLFAFPLPEIRDGYQSNVSDPSTEFTTKILSLPVGPTGNVTAYLYKPVSGEREKGKDLLPVIAYFHGGGWVFGGPKSYRGLITNLIRESGAAVFFVDYTLTPKVAYPVPNEQCYAAVQWLLEHGEKLGVDPTNMGFGGDSAGGELSSSVSLLSIKRKTPLPKFQVLIYPATDLACESATFKEFPNGPGLTTDEIRFAASLFTPDPKSRLEDVASPGRASDEDLAKFPETLIVVAEVDPIRQQGEDFGRRLQKLGVRAAIIRVLGTIHGFASIDVLSEAPGAKATIELIGYKFKKALH
notes: signal peptide (first 18 residues) removed; N-terminal 6xHis cut with thrombin; E. coli BL21-CodonPlus(DE3)-RIL; ~35 kDa subunit, dimer (~65 kDa); structure residues 34-347; triad Ser190, Asp287, His317
Km [8]: 49 ± 8 µM | Vmax [8]: 3840 µmol/min/mg | kcat [8]: 2300 s⁻¹ | kcat/Km [8]: 4.7e+07 M⁻¹ s⁻¹ | Km [9]: 44 ± 7 µM | Vmax [9]: 4790 µmol/min/mg | kcat [9]: 2870 s⁻¹ | kcat/Km [9]: 6.53e+07 M⁻¹ s⁻¹ | Km [10]: 750 µM | kcat [10]: 1 s⁻¹
